Our source for the Kd values is the Immune Epitope Database (IEDB).

For one test, the target named is HLA-A*01:01. The experiment in a line: IEDB peptide-MHC binding, purified MHC/direct/fluorescence; filed as Kd, often an IC50 or EC50 that approximates it; ≥ and ≤ were set here for values at or beyond the usual limits of such assays.
A further test deals with HLA-A*02:01. Described as above.
For a further test, the target named is HLA-B*07:02. Described as above.
For the next test, the target named is HLA-B*08:03. Described as above. The settings on record: source organism: Ravn virus - Ravn, Kenya, 1987.
The next test deals with HLA-B*15:01. Described as above.
For a further test, the target named is HLA-B*18:01. The test is described as above.
A further test has as its target HLA-B*38:01. The description is as above.
For a further test, the target named is HLA-B*39:01. Described as above.
Another test concerns the target HLA-B*40:01. The description is as above.
The next test concerns the target HLA-B*46:01. Described as above.
The target in test [1] is HLA-B*48:01. The description is as above. The settings on record: source organism: Ebola virus - Mayinga, Zaire, 1976.
The next test has as its target HLA-B*57:01. The test is described as above.
A further test concerns the target HLA-B*58:01. Described as above.
In test [2] the target is HLA-A*26:01. The experiment in a line: IEDB peptide-MHC binding, purified MHC/competitive/fluorescence; filed as Kd, often an IC50 or EC50 that approximates it; ≥ and ≤ were set here for values at or beyond the usual limits of such assays. The settings on record: source organism: Zaire ebolavirus.
The target of test [3] is HLA-A*26:02. The description is as above. The settings on record: source organism: Zaire ebolavirus.
Test [4] addresses HLA-A*68:02. The description is as above. The settings on record: source organism: Zaire ebolavirus.
Test [5] deals with HLA-A*26:01. The experiment in a line: IEDB peptide-MHC binding, purified MHC/direct/fluorescence; filed as Kd, often an IC50 or EC50 that approximates it; ≥ and ≤ were set here for values at or beyond the usual limits of such assays. The settings on record: source organism: Variola virus.
Test [6] deals with HLA-A*26:02. Described as above. The settings on record: source organism: Variola virus.
In test [7] the target is HLA-A*68:02. The description is as above. The settings on record: source organism: Aracatuba virus.
The target in the next test is HLA-A*69:01. The description is as above. The settings on record: source organism: Aracatuba virus.
A further test addresses HLA-B*08:01. The description is as above. The settings on record: source organism: Variola virus.
For a further test, the target named is HLA-B*08:02. Described as above. The settings on record: source organism: Variola virus.
Another test concerns the target HLA-B*15:17. Described as above. The settings on record: source organism: Aracatuba virus.
In another test the target is HLA-B*27:05. The test is described as above. The settings on record: source organism: Aracatuba virus.
The next test deals with HLA-A*30:01. The test can be described thus: IEDB peptide-MHC binding, purified MHC/competitive/fluorescence; filed as Kd, often an IC50 or EC50 that approximates it; ≥ and ≤ were set here for values at or beyond the usual limits of such assays. The settings on record: source organism: Rabbitpox virus.
In test [8] the target is HLA-B*48:01. Described as above. The settings on record: source organism: Rabbitpox virus.
The mark [9] stands for this setting: source organism: Ebola virus - Mayinga, Zaire, 1976.
The mark [10] stands for this setting: source organism: Aracatuba virus.

As to SRTPSGKRL, the Kd with HLA-A*01:01 (setting [9]), in the test with HLA-A*02:01 (setting [9]), in the test with HLA-B*07:02 (setting [9]), with HLA-B*08:03, with HLA-B*15:01 (setting [9]) and with HLA-B*18:01 (setting [9]) was at least 20 µM in each case. In addition, the equilibrium dissociation constant (Kd) – broadly, the constant that tells how readily two partners part at equilibrium – was at least 20 µM in the test with HLA-B*38:01 (source organism: Ravn virus - Ravn, Kenya, 1987); at least 20 µM in the test with HLA-B*39:01 (setting [9]); at least 20 µM in the test with HLA-B*40:01 (setting [9]); at least 20 µM in the test with HLA-B*46:01 (setting [9]); at least 20 µM in the test with HLA-B*48:01 [1]; at least 20 µM with HLA-B*57:01 (setting [9]). For the same sequence, the dissociation constant Kd in the test with HLA-B*58:01 (setting [9]) is at least 20 µM; with HLA-A*26:01 [2] it was 2.12 µM; with HLA-A*26:02 [3] it was 2.8 µM; with HLA-A*68:02 [4], 3.11 µM.

Take YKEPNSIIL: the equilibrium dissociation constant (Kd) with HLA-A*01:01 (setting [10]), with HLA-A*02:01 (setting [10]), in the test with HLA-A*26:01 [5], in the test with HLA-A*26:02 [6], in the test with HLA-A*68:02 [7] and with HLA-A*69:01 was at least 20 µM in each case. Moreover, the Kd in the test with HLA-B*07:02 (setting [10]), with HLA-B*08:01, with HLA-B*08:02, with HLA-B*15:01 (setting [10]), with HLA-B*15:17 and in the test with HLA-B*18:01 (setting [10]) was at least 20 µM each time. Besides, the dissociation constant (Kd) with HLA-B*27:05 is at least 20 µM; with HLA-B*38:01 (source organism: Variola virus), 0.617 µM; in the test with HLA-B*39:01 (setting [10]), 0.0305 µM; in the test with HLA-B*40:01 (setting [10]) it was at least 20 µM; in the test with HLA-B*46:01 (setting [10]), at least 20 µM; with HLA-B*57:01 (setting [10]), at least 20 µM. The Kd with HLA-B*58:01 (setting [10]) was at least 20 µM; with HLA-A*30:01, at least 20 µM; with HLA-B*48:01 [8] it was 0.224 µM.
